Experiment [1] has as its target Cry1Ab receptor sites located in BBMV's (brush border membrane vesicles) from Ostrinia nubilalis larval midgut (Ostrinia nubilalis). Put plainly: homologous radioligand competition, unlabeled Cry1Ab against 0.5 nM 125I Cry1Ab on O. nubilalis BBMVs. (In general: In a radioligand displacement assay an active substance lowers the binding of a labelled ligand.)
Experiment [2] shares this target. Briefly: heterologous radioligand competition, unlabeled DIG-3 against 0.5 nM 125I Cry1Ab on O. nubilalis BBMVs.

Broadly, the IC50 is the concentration that gives 50% inhibition.

As for “Cry1Ab toxin, trypsin activated, non-radioactive (unlabeled homologous competitor) (from UniProt P0A370 29-607)”, the IC50 in experiment [1] worked out at 0.5 nM.

Regarding “DIG-3 toxin, trypsin activated (unlabeled heterologous competitor)”, in experiment [2], the percent displacement of 125I Cry1Ab binding at 300 nM DIG-3 stood at 25%.

The record behind these values is patent US20130036520A1.
